We go through 10 molecules from article PMC9352551, “Energetic determinants of animal cell polarity regulator Par-3 interaction with the Par complex” (The Journal of Biological Chemistry, 2022).

B1: MBP-Par-3 PDZ1-APMΔPDZ2 (domain or fragment, Drosophila, UniProt O96782 309-987, looked up)
chain: DGEMLLIINEYGSPLGLTALPDKEHGGGLLVQHVEPGSRAERGQLRRDDRILEINGIKLIGLTESQVQEQLRRALESSELRVRVLRGDRNRRQQRDSKVADMVEVATVSPTRKPHAAPVGTSLQVANTAEQADQPAEKSAGVAVAPSVAPPAVPAAAAPAPPIPVQKSSSARSLFTHQQQSQLNESQHFIDAGSESAASNDSLPPSSNSWHSREELTLHIPVHDTEKAGLGVSVKGKTCSNLNASGSSASSGSNGLMKHDGDLGIFVKNVIHGGAASRDGRLRMNDQLLSVNGVSLRGQNNAEAMETLRRAMVNTPGKHPGTITLLVGRKILRSASSSDILDHSNSHSHSHSNSSGGSNSNGSGNNNNSSSNASDNSGATVIYLSPEKREQRCNGGGGGGSAGNEMNRWSNPVLDRLTGGICSSNSAQPSSQQSHQQQPHPSQQQQQQRRLPAAPVCSSAALRNESYYMATNDNWSPAQMHLMTAHGNTALLIEDDAEPMSPTLPARPHDGQHCNTSSANPSQNLAVGNQGPPINTVPGTPSTSSNFDATYSSQLSLETNSGVEHFSRDALGRRSISEKHHA
notes: Par-3 (Bazooka), Drosophila, residues 309-987 with residues 437-533 deleted; From pMAL; construct as in PMID 32084408; not shown: MBP, N-terminal, kept; His tag, C-terminal, kept
B2: GST-Par-3 BR-PDZ2 (domain or fragment, Drosophila, UniProt O96782 426-533, looked up)
chain: PVGTSLQVANTRKLGRKIQIMLKKGPNGLGFSVTTRDNPAGAHCPIYIKNILPRGAAIEDGRLKPGDRLLEVDGTPMTGKTQTDVVAILRGMPAGATVRIVVSRQQEL
notes: Par-3 (Bazooka), Drosophila, residues 426-533 (basic region and PDZ2); From pGEX
B3: GST-Par-3 PDZ3 (domain or fragment, Drosophila, UniProt O96782 616-741, looked up)
chain: HSREELTLHIPVHDTEKAGLGVSVKGKTCSNLNASGSSASSGSNGLMKHDGDLGIFVKNVIHGGAASRDGRLRMNDQLLSVNGVSLRGQNNAEAMETLRRAMVNTPGKHPGTITLLVGRKILRSAS
notes: Par-3 (Bazooka), Drosophila, residues 616-741; From pGEX; also called GST fused Par-3 PDZ3
B4: GST-Par-3 PDZ2-3 (domain or fragment, Drosophila, UniProt O96782 444-741, looked up)
chain: QIMLKKGPNGLGFSVTTRDNPAGAHCPIYIKNILPRGAAIEDGRLKPGDRLLEVDGTPMTGKTQTDVVAILRGMPAGATVRIVVSRQQELAEQADQPAEKSAGVAVAPSVAPPAVPAAAAPAPPIPVQKSSSARSLFTHQQQSQLNESQHFIDAGSESAASNDSLPPSSNSWHSREELTLHIPVHDTEKAGLGVSVKGKTCSNLNASGSSASSGSNGLMKHDGDLGIFVKNVIHGGAASRDGRLRMNDQLLSVNGVSLRGQNNAEAMETLRRAMVNTPGKHPGTITLLVGRKILRSAS
notes: Par-3 (Bazooka), Drosophila, residues 444-741; From pGEX
B5: GST-Par-3 PDZ1-3 (domain or fragment, Drosophila, UniProt O96782 309-741, looked up)
chain: DGEMLLIINEYGSPLGLTALPDKEHGGGLLVQHVEPGSRAERGQLRRDDRILEINGIKLIGLTESQVQEQLRRALESSELRVRVLRGDRNRRQQRDSKVADMVEVATVSPTRKPHAAPVGTSLQVANTRKLGRKIQIMLKKGPNGLGFSVTTRDNPAGAHCPIYIKNILPRGAAIEDGRLKPGDRLLEVDGTPMTGKTQTDVVAILRGMPAGATVRIVVSRQQELAEQADQPAEKSAGVAVAPSVAPPAVPAAAAPAPPIPVQKSSSARSLFTHQQQSQLNESQHFIDAGSESAASNDSLPPSSNSWHSREELTLHIPVHDTEKAGLGVSVKGKTCSNLNASGSSASSGSNGLMKHDGDLGIFVKNVIHGGAASRDGRLRMNDQLLSVNGVSLRGQNNAEAMETLRRAMVNTPGKHPGTITLLVGRKILRSAS
notes: Par-3 (Bazooka), Drosophila, residues 309-741; From pGEX; also called Par-3 fragment containing its three PDZ domains
B6: GST-Par-3 PDZ1-2 (domain or fragment, Drosophila, UniProt O96782 309-533, looked up)
chain: DGEMLLIINEYGSPLGLTALPDKEHGGGLLVQHVEPGSRAERGQLRRDDRILEINGIKLIGLTESQVQEQLRRALESSELRVRVLRGDRNRRQQRDSKVADMVEVATVSPTRKPHAAPVGTSLQVANTRKLGRKIQIMLKKGPNGLGFSVTTRDNPAGAHCPIYIKNILPRGAAIEDGRLKPGDRLLEVDGTPMTGKTQTDVVAILRGMPAGATVRIVVSRQQEL
notes: Par-3 (Bazooka), Drosophila, residues 309-533; From pGEX
B7: GST-Par-3 BR-PDZ2-3 (domain or fragment, Drosophila, UniProt O96782 426-741, looked up)
chain: PVGTSLQVANTRKLGRKIQIMLKKGPNGLGFSVTTRDNPAGAHCPIYIKNILPRGAAIEDGRLKPGDRLLEVDGTPMTGKTQTDVVAILRGMPAGATVRIVVSRQQELAEQADQPAEKSAGVAVAPSVAPPAVPAAAAPAPPIPVQKSSSARSLFTHQQQSQLNESQHFIDAGSESAASNDSLPPSSNSWHSREELTLHIPVHDTEKAGLGVSVKGKTCSNLNASGSSASSGSNGLMKHDGDLGIFVKNVIHGGAASRDGRLRMNDQLLSVNGVSLRGQNNAEAMETLRRAMVNTPGKHPGTITLLVGRKILRSAS
notes: Par-3 (Bazooka), Drosophila, residues 426-741; From pGEX
B8: GST-Par-3 PDZ2 (domain or fragment, Drosophila, UniProt O96782 444-533, looked up)
chain: QIMLKKGPNGLGFSVTTRDNPAGAHCPIYIKNILPRGAAIEDGRLKPGDRLLEVDGTPMTGKTQTDVVAILRGMPAGATVRIVVSRQQEL
notes: Par-3 (Bazooka), Drosophila, residues 444-533; From pGEX; also called GST fused Par-3 PDZ2
B9: Par-3 PDZ3 (his-purified, soluble) (domain or fragment, Drosophila, UniProt O96782 616-741, looked up)
chain: B3 chain
notes: Par-3 (Bazooka), Drosophila, residues 616-741; From pET19; source: E. coli BL21 (DE3), his-purified
B10: Par-3 PDZ2 (his-purified, soluble) (domain or fragment, Drosophila, UniProt O96782 444-533, looked up)
chain: B8 chain
notes: Par-3 (Bazooka), Drosophila, residues 444-533; From pET19; also called soluble PDZ2; source: E. coli BL21 (DE3), his-purified

The target in one test is T1, Par complex (his-Par-6, aPKC) (Drosophila, UniProt O97111 1-351; A1Z9X0 1-606).
T1 construct: Par-6, Drosophila, residues 1-351; atypical protein kinase C (aPKC), Drosophila, residues 1-606; Construct as in PMID 32084408; also called full Par complex; source: HEK 293F, transfected (pCMV), purified (Ni-NTA or cobalt resin, Source Q anion exchange)
T1 sequence (looked up) 1: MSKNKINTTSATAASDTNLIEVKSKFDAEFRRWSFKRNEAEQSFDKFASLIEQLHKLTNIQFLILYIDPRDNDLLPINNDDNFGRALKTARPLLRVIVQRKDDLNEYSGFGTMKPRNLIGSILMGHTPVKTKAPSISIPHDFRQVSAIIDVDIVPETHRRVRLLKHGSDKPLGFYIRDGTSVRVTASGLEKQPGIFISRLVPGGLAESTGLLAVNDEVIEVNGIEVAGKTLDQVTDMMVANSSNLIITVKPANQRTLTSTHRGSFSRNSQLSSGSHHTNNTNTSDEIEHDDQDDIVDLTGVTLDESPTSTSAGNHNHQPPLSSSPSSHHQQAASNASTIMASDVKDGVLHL
T1 sequence (looked up) 2: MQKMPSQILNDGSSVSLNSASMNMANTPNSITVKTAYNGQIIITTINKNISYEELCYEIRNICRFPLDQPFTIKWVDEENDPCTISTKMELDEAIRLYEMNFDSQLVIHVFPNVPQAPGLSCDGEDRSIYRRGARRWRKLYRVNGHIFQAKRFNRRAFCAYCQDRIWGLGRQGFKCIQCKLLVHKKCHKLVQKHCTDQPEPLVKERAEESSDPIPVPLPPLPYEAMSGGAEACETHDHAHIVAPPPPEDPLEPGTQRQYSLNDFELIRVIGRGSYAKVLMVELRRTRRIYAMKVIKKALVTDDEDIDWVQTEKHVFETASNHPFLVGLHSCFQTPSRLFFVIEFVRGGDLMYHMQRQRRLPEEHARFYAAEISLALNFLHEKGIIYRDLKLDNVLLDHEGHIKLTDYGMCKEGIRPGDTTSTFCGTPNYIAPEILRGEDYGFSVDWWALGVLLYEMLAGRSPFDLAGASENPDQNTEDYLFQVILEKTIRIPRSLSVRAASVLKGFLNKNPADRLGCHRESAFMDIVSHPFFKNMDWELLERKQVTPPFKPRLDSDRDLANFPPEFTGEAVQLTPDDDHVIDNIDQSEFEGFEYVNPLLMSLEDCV
Put plainly: supernatant depletion assay; MBP-Par-3 (C-terminal his-tag, his-purified) on amylose resin (solid phase); soluble protein left in the supernatant quantified on a Coomassie gel; 10 min at 20 °C; 10 mM Hepes pH 7.5, 100 mM NaCl, 1 mM DTT, 200 μM ATP, 5 mM MgCl2, 0.1% Tween-20; 'apparent'. As to conditions: both partners purified.
Take B1: the binding result is “binds”.

The target of the next test is T1, Par complex (his-Par-6, aPKC). The test is described as follows: supernatant depletion assay; GST-fused protein on glutathione agarose resin (solid phase, 'ligand'); soluble protein ('receptor') left in the supernatant at equilibrium quantified on a Coomassie gel; 1 h at 20 °C; 10 mM Hepes pH 7.5, 100 mM NaCl, 1 mM DTT, 200 μM ATP, 5 mM MgCl2, 0.1% Tween-20; single-site equation; 'apparent' for Par-3 variants that could bind more than one Par complex; ATP replaced with ADP in one …. The conditions noted are these: both partners purified.
Take B2: the binding result is recorded as “binds”.
In the case of B3, the binding result was “binds”.
Still for that read-out and setting: to B4 belongs “binds”.
Same read-out and setting: to B5 belongs “binds”; to B6, “binds”; to B7, “binds”.
The same measure, in the same setting: to B8 belongs “binds”.

The next test addresses T2, aPKC KD-PBM (Drosophila, UniProt A1Z9X0 259-606).
T2 construct: From pBH; also called his aPKC kinase domain-PBM; aPKC kinase domain–PBM; source: E. coli BL21 (DE3), his-purified (Ni-NTA) partially under denaturing conditions (8 M urea)
T2 sequence (looked up): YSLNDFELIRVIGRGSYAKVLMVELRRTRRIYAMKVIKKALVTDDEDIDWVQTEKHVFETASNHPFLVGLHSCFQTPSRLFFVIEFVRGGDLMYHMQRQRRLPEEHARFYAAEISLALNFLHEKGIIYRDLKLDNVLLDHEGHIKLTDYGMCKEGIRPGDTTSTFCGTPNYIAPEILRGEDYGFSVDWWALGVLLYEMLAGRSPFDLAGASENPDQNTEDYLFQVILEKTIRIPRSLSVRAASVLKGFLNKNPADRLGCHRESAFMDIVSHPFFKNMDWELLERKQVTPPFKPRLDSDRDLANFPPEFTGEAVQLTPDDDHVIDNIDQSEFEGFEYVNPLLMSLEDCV
The description is as above. The conditions noted are these: both partners purified.
Take B2: the binding result is listed as “binds”.
On the same count and under the same terms, in the case of B3 it was “binds”; in that of B4, “binds”.
Still for that read-out and setting: in the case of B6 it was “binds”; in that of B7, “binds”.
The same measure, in the same setting: to B8 belongs “binds”.

The target in another test is T2, aPKC KD-PBM. Put plainly: pull-down; competition: GST-Par-3 PDZ2 or PDZ3 on glutathione resin with aPKC KD-PBM and the other PDZ domain as soluble competitor; room temperature, 30 to 60 min; 10 mM Hepes pH 7.5, 100 mM NaCl, 1 mM DTT, 200 μM ATP, 5 mM MgCl2, 0.1% Tween-20; Coomassie gel. As to conditions: both partners purified.
In the case of B9, the binding result is reported as “binds”.
On the same count and under the same terms, to B10 belongs “binds”.
